Here are results for three molecules from paper PMC5497066, “GroEL actively stimulates folding of the endogenous substrate protein PepQ” (Nature Communications, 2017).

Where a chain is given by its changes, count along the chain named. Names may count otherwise.

Assay [1] addresses T1, wild-type GroEL tetradecamer (E. coli, UniProt P0A6F5 1-548).
T1 construct: GroEL (Hsp60 chaperonin), E. coli, homo-oligomer of 14 subunits of 57 kDa in two seven-membered rings; also called WT; full-length GroEL; source: E. coli BL21, purified (anion exchange, ammonium sulfate precipitation, Affi Blue Gel); copies: 14
The experiment in a line: cryo-EM structure; acid-urea denatured PepQ (7 μM final) titrated into GroEL or Δ526 (8 μM tetradecamers) in TKM buffer, no nucleotide, room temperature 5 min; asymmetric 3D classification and refinement. Particulars: both partners purified.

For assay [2], the target named is single-ring truncation mutant, SRΔ526 (E. coli). Nature of the assay: cell-based or functional assay.
Assay [3] addresses T2, asymmetric wild-type GroEL-GroES-ADP complex (E. coli, UniProt P0A6F5 1-548; P0A6F9 1-97).
T2 construct: GroEL, E. coli, wild type; GroES, ring-shaped co-chaperonin, E. coli; GroES caps one ring; also called GroEL-GroES-ADP bullets; source: GroEL from E. coli BL21 and GroES from E. coli BL21(DE3), each purified; complex formed beforehand with ADP; copies: 14 +
Nature of the assay: protease protection (encapsulation); denatured PepQ-24F (100 nM) bound to wild-type or Δ526 GroEL-GroES-ADP bullets (200 nM) or full-length or Δ526 single-ring GroEL (300 nM) with GroES (600 nM); single turnover with ATP (2 mM), quenched after 10 s; unencapsulated PepQ digested with Proteinase K; SDS-PAGE, fluorescein scan. The settings on record: both partners purified.

Assay [4] has as its target T1, wild-type GroEL tetradecamer. Nature of the assay: fluorescence correlation spectroscopy; acid-urea denatured PepQ-24TMR (2 nM) with GroEL (1 μM) in TKM buffer (50 mM Tris-HCl, pH 7.4, 50 mM KOAc, 10 mM Mg(OAc)2, 2 mM DTT); shift in diffusion time. Particulars: both partners purified.

B1: wild type E. coli PepQ (enzyme, UniProt P21165 1-443, looked up)
chain: MESLASLYKNHIATLQERTRDALARFKLDALLIHSGELFNVFLDDHPYPFKVNPQFKAWVPVTQVPNCWLLVDGVNKPKLWFYLPVDYWHNVEPLPTSFWTEDVEVIALPKADGIGSLLPAARGNIGYIGPVPERALQLGIEASNINPKGVIDYLHYYRSFKTEYELACMREAQKMAVNGHRAAEEAFRSGMSEFDINIAYLTATGHRDTDVPYSNIVALNEHAAVLHYTKLDHQAPEEMRSFLLDAGAEYNGYAADLTRTWSAKSDNDYAQLVKDVNDEQLALIATMKAGVSYVDYHIQFHQRIAKLLRKHQIITDMSEEAMVENDLTGPFMPHGIGHPLGLQVHDVAGFMQDDSGTHLAAPAKYPYLRCTRILQPGMVLTIEPGIYFIESLLAPWREGQFSKHFNWQKIEALKPFGGIRIEDNVVIHENNVENMTRDLKLA
notes: PepQ (Xaa-Pro dipeptidase, prolidase), E. coli, monomer of about 50 kDa; native form is a homodimer; also called prolidase; metalloprotease PepQ; source: E. coli BL21(DE3), purified (anion exchange, ammonium sulfate, Phenyl Sepharose)
B1: the binding result in assay [1] is recorded as “binds”. In addition, in assay [2], the “observed folding rate constant of PepQ by recovery of enzymatic activity, bound to SRΔ526 (300 nM) and refolded with GroES (600 nM) and ATP (2 mM)” value is 0.332 min⁻¹.

B2: PepQ-24F (enzyme, E. coli, UniProt P21165 1-443, looked up)
chain: B1 chain with A24C
modifications: fluorescein (5-iodoacetamidofluorescein) on the cysteine at position 24
notes: PepQ, E. coli, with the surface-exposed cysteine A24C; also called Fluorescein-labelled PepQ; A24C PepQ labelled with fluorescein; source: E. coli BL21(DE3), purified, labelled and re-purified (PD-10, MonoQ)
As for B2, the binding result in assay [3] is “binds”.

B3: PepQ-24TMR (enzyme, E. coli, UniProt P21165 1-443, looked up)
chain: B1 chain with A24C
modifications: tetramethylrhodamine (tetramethylrhodamine-5-iodoacetamide) on the cysteine at position 24
notes: PepQ, E. coli, with the surface-exposed cysteine A24C in the first helix of the N-terminal domain; also called PepQ-TMR; A24C PepQ labelled with tetramethylrhodamine; source: E. coli BL21(DE3), purified, labelled and re-purified (PD-10, MonoQ)
For B3, the binding result in assay [4] is “binds”.
